From IntAct's records for PubMed 31515488

B1: Dynein light chain 2, cytoplasmic (Homo sapiens), Q96FJ2 (parent)
chain: MSDRKAVIKNADMSEDMQQDAVDCATQAMEKYNIEKDIAAYIKKEFDKKYNPTWHCIVGRNFGSYVTHETKHFIYFYLGQVAILLFKSG
partner: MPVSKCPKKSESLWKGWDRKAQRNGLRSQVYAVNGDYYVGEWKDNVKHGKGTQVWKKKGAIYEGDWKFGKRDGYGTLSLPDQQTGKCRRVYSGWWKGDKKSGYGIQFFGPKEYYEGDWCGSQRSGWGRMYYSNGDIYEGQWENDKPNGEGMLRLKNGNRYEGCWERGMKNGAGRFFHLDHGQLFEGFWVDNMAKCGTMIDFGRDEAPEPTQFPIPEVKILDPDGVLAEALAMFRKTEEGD
B2: Chorion-specific transcription factor GCMb (Homo sapiens), O75603 (parent)
chain: MPAAAVQEAVGVCSYGMQLSWDINDPQMPQELALFDQFREWPDGYVRFIYSSDEKKAQRHLSGWAMRNTNNHNGHILKKSCLGVVVCTQACTLPDGSRLQLRPAICDKARLKQQKKACPNCHSALELIPCRGHSGYPVTNFWRLDGNAIFFQAKGVHDHPRPESKSETEARRSAIKRQMASFYQPQKKRIRESEAEENQDSSGHFSNIPPLENPEDFDIVTETSFPIPGQPCPSFPKSDVYKATCDLATFQGDKMPPFQKYSSPRIYLPRPPCSYELANPGYTNSSPYPTLYKDSTSIPNDTDWVHLNTLQCNVNSYSSYERSFDFTNKQHGWKPALGKPSLVERTNHGQFQAMATRPYYNPELPCRYLTTPPPGAPALQTVITTTTKVSYQAYQPPAMKYSDSVREVKSLSSCNYAPEDTGMSVYPEPWGPPVTVTRAASPSGPPPMKIAGDCRAIRPTVAIPHEPVSSRTDEAETWDVCLSGLGSAVSYSDRVGPFFTYNNEDF
B3: Kelch-like protein 2 (Homo sapiens), O95198 (parent)
chain: METPPLPPACTKQGHQKPLDSKDDNTEKHCPVTVNPWHMKKAFKVMNELRSQNLLCDVTIVAEDMEISAHRVVLAACSPYFHAMFTGEMSESRAKRVRIKEVDGWTLRMLIDYVYTAEIQVTEENVQVLLPAAGLLQLQDVKKTCCEFLESQLHPVNCLGIRAFADMHACTDLLNKANTYAEQHFADVVLSEEFLNLGIEQVCSLISSDKLTISSEEKVFEAVIAWVNHDKDVRQEFMARLMEHVRLPLLPREYLVQRVEEEALVKNSSACKDYLIEAMKYHLLPTEQRILMKSVRTRLRTPMNLPKLMVVVGGQAPKAIRSVECYDFKEERWHQVAELPSRRCRAGMVYMAGLVFAVGGFNGSLRVRTVDSYDPVKDQWTSVANMRDRRSTLGAAVLNGLLYAVGGFDGSTGLSSVEAYNIKSNEWFHVAPMNTRRSSVGVGVVGGLLYAVGGYDGASRQCLSTVECYNATTNEWTYIAEMSTRRSGAGVGVLNNLLYAVGGHDGPLVRKSVEVYDPTTNAWRQVADMNMCRRNAGVCAVNGLLYVVGGDDGSCNLASVEYYNPTTDKWTVVSSCMSTGRSYAGVTVIDKPL
B4: U3 small nucleolar RNA-associated protein 14 homolog A (Homo sapiens), Q9BVJ6 (parent)
chain: MTANRLAESLLALSQQEELADLPKDYLLSESEDEGDNDGERKHQKLLEAISSLDGKNRRKLAERSEASLKVSEFNVSSEGSGEKLVLADLLEPVKTSSSLATVKKQLSRVKSKKTVELPLNKEEIERIHREVAFNKTAQVLSKWDPVVLKNRQAEQLVFPLEKEEPAIAPIEHVLSGWKARTPLEQEIFNLLHKNKQPVTDPLLTPVEKASLRAMSLEEAKMRRAELQRARALQSYYEAKARREKKIKSKKYHKVVKKGKAKKALKEFEQLRKVNPAAALEELEKIEKARMMERMSLKHQNSGKWAKSKAIMAKYDLEARQAMQEQLSKNKELTQKLQVASESEEEEGGTEDVEELLVPDVVNEVQMNADGPNPWMLRSCTSDTKEAATQEDPEQLPELEAHGVSESEGEERPVAEEEILLREFEERRSLRKRSELSQDAEPAGSQETKDSGSQEVLSELRVLSQKLKENHQSRKQKASSEGTIPQVQREEPAPEEEEPLLLQRPERVQTLEELEELGKEECFQNKELPRPVLEGQQSERTPNNRPDAPKEKKKKEQMIDLQNLLTTQSPSVKSLAVPTIEELEDEEERNHRQMIKEAFAGDDVIRDFLKEKREAVEASKPKDVDLTLPGWGEWGGVGLKPSAKKRRRFLIKAPEGPPRKDKNLPNVIINEKRNIHAAAHQVRVLPYPFTHHWQFERTIQTPIGSTWNTQRAFQKLTTPKVVTKPGHIINPIKAEDVGYRSSSRSDLSVIQRNPKRITTRHKKQLKKCSVD
partner: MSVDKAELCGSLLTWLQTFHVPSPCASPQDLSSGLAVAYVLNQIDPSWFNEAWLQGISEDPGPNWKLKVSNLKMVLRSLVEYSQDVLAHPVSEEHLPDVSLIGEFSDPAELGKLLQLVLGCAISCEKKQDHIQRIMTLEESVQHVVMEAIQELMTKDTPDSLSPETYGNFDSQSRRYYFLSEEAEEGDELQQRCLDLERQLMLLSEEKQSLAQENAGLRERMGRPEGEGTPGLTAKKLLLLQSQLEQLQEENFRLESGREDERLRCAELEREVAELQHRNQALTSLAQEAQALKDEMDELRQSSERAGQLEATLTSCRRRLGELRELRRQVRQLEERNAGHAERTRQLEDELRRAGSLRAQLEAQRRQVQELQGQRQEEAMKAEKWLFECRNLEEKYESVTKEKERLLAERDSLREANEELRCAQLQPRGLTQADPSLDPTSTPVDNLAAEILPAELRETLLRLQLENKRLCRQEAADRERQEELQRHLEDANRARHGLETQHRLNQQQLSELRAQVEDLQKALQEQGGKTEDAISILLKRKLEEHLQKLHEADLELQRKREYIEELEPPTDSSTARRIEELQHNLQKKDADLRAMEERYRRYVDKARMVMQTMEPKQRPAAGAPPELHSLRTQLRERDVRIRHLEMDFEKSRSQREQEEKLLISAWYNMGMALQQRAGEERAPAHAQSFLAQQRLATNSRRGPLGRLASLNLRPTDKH
B5: Gem-associated protein 6 (Homo sapiens), Q8WXD5 (parent)
chain: MSEWMKKGPLEWQDYIYKEVRVTASEKNEYKGWVLTTDPVSANIVLVNFLEDGSMSVTGIMGHAVQTVETMNEGDHRVREKLMHLFTSGDCKAYSPEDLEERKNSLKKWLEKNHIPITEQGDAPRTLCVAGVLTIDPPYGPENCSSSNEIILSRVQDLIEGHLTASQ

Variants of: B1
Conditions: with morn3_human MORN3, Q6PF18

Variant | effect of a mutation on the interaction
N33S | with no effect

Variants of: B2
Conditions: with crx_human CRX

Variant | effect of a mutation on the interaction
D53N | with no effect

Variants of: B2
Conditions: with fhl3_human FHL3, Q13643
Chain of fhl3_human FHL3, Q13643 (Q13643 whole entry): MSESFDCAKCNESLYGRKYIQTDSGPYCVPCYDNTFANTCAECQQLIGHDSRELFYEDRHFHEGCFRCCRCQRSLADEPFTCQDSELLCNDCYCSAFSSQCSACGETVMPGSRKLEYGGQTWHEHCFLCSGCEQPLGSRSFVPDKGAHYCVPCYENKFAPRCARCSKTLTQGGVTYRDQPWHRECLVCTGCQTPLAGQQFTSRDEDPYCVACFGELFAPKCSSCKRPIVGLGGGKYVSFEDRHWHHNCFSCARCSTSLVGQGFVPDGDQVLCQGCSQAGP

Variant | effect of a mutation on the interaction
D53N | with no effect

Variants of: B2
Conditions: with rbpms_human RBPMS

Variant | effect of a mutation on the interaction
D53N | with no effect

Variants of: B3
Conditions: with cul3_human CUL3, Q13618

Variant | effect of a mutation on the interaction
V156I | with no effect

Variants of: B3
Conditions: with zn114_human ZNF114, Q8NC26
Chain of zn114_human ZNF114, Q8NC26 (Q8NC26 whole entry): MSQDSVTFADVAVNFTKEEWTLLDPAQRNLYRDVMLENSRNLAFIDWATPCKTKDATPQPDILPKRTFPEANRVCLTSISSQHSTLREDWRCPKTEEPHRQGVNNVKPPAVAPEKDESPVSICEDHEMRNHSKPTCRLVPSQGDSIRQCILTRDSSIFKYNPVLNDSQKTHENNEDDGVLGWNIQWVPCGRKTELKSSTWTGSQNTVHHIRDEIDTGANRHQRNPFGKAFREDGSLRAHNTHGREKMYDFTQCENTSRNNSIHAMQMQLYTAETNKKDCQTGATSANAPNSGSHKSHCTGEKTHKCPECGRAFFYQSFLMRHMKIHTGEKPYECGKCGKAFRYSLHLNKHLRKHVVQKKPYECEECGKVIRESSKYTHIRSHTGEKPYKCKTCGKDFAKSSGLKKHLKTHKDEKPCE

Variant | effect of a mutation on the interaction
V156I | with no effect

Variants of: B3
Conditions: with txd12_human TXNDC12, O95881
Chain of txd12_human TXNDC12, O95881 (O95881 whole entry): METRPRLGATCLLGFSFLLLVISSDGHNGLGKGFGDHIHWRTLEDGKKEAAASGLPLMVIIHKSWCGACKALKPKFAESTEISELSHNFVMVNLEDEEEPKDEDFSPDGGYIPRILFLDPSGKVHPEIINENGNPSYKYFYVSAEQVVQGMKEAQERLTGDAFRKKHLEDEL

Variant | effect of a mutation on the interaction
S68A | with no effect
A480T | with no effect

Variants of: B3
Conditions: with tma16_human TMA16, Q96EY4

Variant | effect of a mutation on the interaction
S68A | with no effect
A480T | with no effect

Variants of: B4
Conditions: with hook2_human HOOK2, Q96ED9

Variant | effect of a mutation on the interaction
V256M | with no effect

Variants of: B5
Conditions: with gemi7_human GEMIN7, Q9H840
Chain of gemi7_human GEMIN7, Q9H840 (Q9H840 whole entry): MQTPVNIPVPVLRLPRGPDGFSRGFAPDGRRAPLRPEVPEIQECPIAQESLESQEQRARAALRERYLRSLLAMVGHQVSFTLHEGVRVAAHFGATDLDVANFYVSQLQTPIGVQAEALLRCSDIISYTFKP

Variant | effect of a mutation on the interaction
V57L | with no effect
G8S | with no effect
C91G | with no effect
